Source: patent US20060140983A1

Target: MHC class I (HLA-ABC) on Me275 and Me290 melanoma cells
Assay: cell-based or functional assay

## purified mouse anti-human HLA-ABC mAb (clone W6/32, DAKO) (antibody)
  inhibition of specific lysis (4 hour 51Cr release assay): > 60%
  specific lysis with W6/32 mAb (4 hour 51Cr release assay, E:T ratio 15:1): 4 % lysis
